The results in this text go back to US9266952B2, “Antibodies against ROR1 and uses thereof” (KANCERA AB, priority 2010, dated 2016).

The subject of the assay is primary patient CLL cells. In words: Primary patient CLL cells i.v. in irradiated NOD.SCID mice, spleen. The settings on record: 10 mg/kg i.p. from day 5-7 after transfer, sacrificed 3-7 days later, versus isotype control. It counts as in vivo. How it is done:
Primary patient CLL cells are intravenously injected into immuno-deficient NOD. SCID mice. The CLL cells home to the spleen and there form proliferating clusters, very similar to human disease. After allowing to settle in the spleen for 5-7 days, the mice were treated with 10 mg/kg anti-ROR1 antibodies every third day and terminated after (A) 7 days, n=7 mice/group; (B) 7 days, n=9-10 mice/group; (C) 4 days, n=8 mice/group; (D) 3 days, n=5 mice/group. At termination the number of CLL cells is quantified in spleen using FACS staining of human CD45, CD19 and CD20. Each figure represents cells from individual CLL patients.
NOD.SCID mice received whole-body irradiation of 1 Gy 1 day prior to injection of primary patient cells.
PBMCs were isolated from peripheral blood of four CLL patients using the Ficoll Hypaque technique. Thereafter, 100×10^6 cells was injected i.v into irradiated NOD.SCID mice. The mice were treated i.p with 10 mg/kg of the ROR1 specific mAb 009-G03, or irrelevant negative control mAb at day 5-7 after transfer of cells to mice and sacrificed 3-7 days later. […]
Spleens were dissected out, minced, and lysed for red blood cells. The cell suspension were stained with fluorochrome conjugated mAb's recognizing human CD45, CD19 or CD20 and CLL cells were quantified as being either CD45^+CD19^+ or CD45^+CD20^+. […]

B1: 010-D06: ROR1 specific mAb, VH SEQ ID NO: 27, VL SEQ ID NO: 28 (FIG. 15) (antibody, listed as Mus musculus, V domains shown)
VH: EVQLLESGGGLVQPGGSLRLSCAASGFTFRDYGMHWVRQAPGKGLEWVSAISGSGGSTFYADSVKGRFTISRDNSKNTLYLQMNSLRAEDTAVYYCARGRSAGSMGYFDYWGQGTLVTVSS
VL: QSVLTQPPSASGTPGQRVTISCTGSSSNIGAGYDVHWYQQLPGTAPKLLIYGNSNRPSGVPDRFSGSKSGTSASLAISGLRSEDEADYYCAAWDDSLNGWVFGGGTKLTVLG
For the molecule B1, the “number of grafted CLL cells in the spleen” value is reported as “significantly reduces the number of grafted CLL cells in the spleen”.
